Assay results reported in the Human Domainome abundance scans (Beltran et al. 2025).
± gives the uncertainty stated by the source.

Assay: abundance fitness (aPCA) (normalised: wild type 0, dead -1); higher = more abundant; growth selection in yeast, the domain comes from the species named
Conditions: Homo sapiens

Substance	abundance fitness
Lipoamide acyltransferase component of branched-chain alpha-keto acid dehydrogenase complex, mitochondrial I200S, P11182	-0.76 ± 0.042
Lipoamide acyltransferase component of branched-chain alpha-keto acid dehydrogenase complex, mitochondrial R178D, P11182	-0.626 ± 0.076
Lipoamide acyltransferase component of branched-chain alpha-keto acid dehydrogenase complex, mitochondrial L188M, P11182	-0.248 ± 0.054
Lipoamide acyltransferase component of branched-chain alpha-keto acid dehydrogenase complex, mitochondrial E210M, P11182	-0.109 ± 0.044
Lipoamide acyltransferase component of branched-chain alpha-keto acid dehydrogenase complex, mitochondrial K202P, P11182	0.011 ± 0.052
Lipoamide acyltransferase component of branched-chain alpha-keto acid dehydrogenase complex, mitochondrial I186F, P11182	-0.9 ± 0.18
Lipoamide acyltransferase component of branched-chain alpha-keto acid dehydrogenase complex, mitochondrial L188D, P11182	-0.535 ± 0.071
Lipoamide acyltransferase component of branched-chain alpha-keto acid dehydrogenase complex, mitochondrial R179Q, P11182	0 ± 0.051
Lipoamide acyltransferase component of branched-chain alpha-keto acid dehydrogenase complex, mitochondrial A173Q, P11182	-0.441 ± 0.048
Lipoamide acyltransferase component of branched-chain alpha-keto acid dehydrogenase complex, mitochondrial K196N, P11182	-0.053 ± 0.076
Lipoamide acyltransferase component of branched-chain alpha-keto acid dehydrogenase complex, mitochondrial V177N, P11182	-0.742 ± 0.26
Lipoamide acyltransferase component of branched-chain alpha-keto acid dehydrogenase complex, mitochondrial P175M, P11182	-0.051 ± 0.081
Lipoamide acyltransferase component of branched-chain alpha-keto acid dehydrogenase complex, mitochondrial G198M, P11182	-0.57 ± 0.1
Lipoamide acyltransferase component of branched-chain alpha-keto acid dehydrogenase complex, mitochondrial R178G, P11182	-0.361 ± 0.046
Lipoamide acyltransferase component of branched-chain alpha-keto acid dehydrogenase complex, mitochondrial I200G, P11182	-0.667 ± 0.045
Lipoamide acyltransferase component of branched-chain alpha-keto acid dehydrogenase complex, mitochondrial L180C, P11182	-0.421 ± 0.055
Lipoamide acyltransferase component of branched-chain alpha-keto acid dehydrogenase complex, mitochondrial D197A, P11182	-0.235 ± 0.036
Lipoamide acyltransferase component of branched-chain alpha-keto acid dehydrogenase complex, mitochondrial A173D, P11182	-0.296 ± 0.067
Lipoamide acyltransferase component of branched-chain alpha-keto acid dehydrogenase complex, mitochondrial K211N, P11182	-0.058 ± 0.092
Lipoamide acyltransferase component of branched-chain alpha-keto acid dehydrogenase complex, mitochondrial L188P, P11182	-0.412 ± 0.047
Lipoamide acyltransferase component of branched-chain alpha-keto acid dehydrogenase complex, mitochondrial G195E, P11182	-0.639 ± 0.073
Lipoamide acyltransferase component of branched-chain alpha-keto acid dehydrogenase complex, mitochondrial L209F, P11182	-0.211 ± 0.098
Lipoamide acyltransferase component of branched-chain alpha-keto acid dehydrogenase complex, mitochondrial A173F, P11182	-0.439 ± 0.096
Lipoamide acyltransferase component of branched-chain alpha-keto acid dehydrogenase complex, mitochondrial N207A, P11182	0.034 ± 0.04

Substance	abundance fitness
Lipoamide acyltransferase component of branched-chain alpha-keto acid dehydrogenase complex, mitochondrial L180E, P11182	-0.438 ± 0.047
Lipoamide acyltransferase component of branched-chain alpha-keto acid dehydrogenase complex, mitochondrial V191T, P11182	-0.696 ± 0.079
Lipoamide acyltransferase component of branched-chain alpha-keto acid dehydrogenase complex, mitochondrial N207I, P11182	-0.261 ± 0.14
Lipoamide acyltransferase component of branched-chain alpha-keto acid dehydrogenase complex, mitochondrial E203L, P11182	-0.176 ± 0.049
Lipoamide acyltransferase component of branched-chain alpha-keto acid dehydrogenase complex, mitochondrial I205W, P11182	-0.629 ± 0.056
Lipoamide acyltransferase component of branched-chain alpha-keto acid dehydrogenase complex, mitochondrial N207Q, P11182	0.035 ± 0.066
Lipoamide acyltransferase component of branched-chain alpha-keto acid dehydrogenase complex, mitochondrial N207S, P11182	-0.017 ± 0.044
Lipoamide acyltransferase component of branched-chain alpha-keto acid dehydrogenase complex, mitochondrial T213V, P11182	-0.028 ± 0.048
Lipoamide acyltransferase component of branched-chain alpha-keto acid dehydrogenase complex, mitochondrial L172H, P11182	-0.052 ± 0.091
Lipoamide acyltransferase component of branched-chain alpha-keto acid dehydrogenase complex, mitochondrial I186V, P11182	-0.046 ± 0.046
Lipoamide acyltransferase component of branched-chain alpha-keto acid dehydrogenase complex, mitochondrial E203D, P11182	-0.089 ± 0.059
Lipoamide acyltransferase component of branched-chain alpha-keto acid dehydrogenase complex, mitochondrial T213R, P11182	0.066 ± 0.045
Lipoamide acyltransferase component of branched-chain alpha-keto acid dehydrogenase complex, mitochondrial E210R, P11182	0.008 ± 0.039
Lipoamide acyltransferase component of branched-chain alpha-keto acid dehydrogenase complex, mitochondrial L201S, P11182	-0.171 ± 0.061
Lipoamide acyltransferase component of branched-chain alpha-keto acid dehydrogenase complex, mitochondrial L188F, P11182	0.116 ± 0.39
Lipoamide acyltransferase component of branched-chain alpha-keto acid dehydrogenase complex, mitochondrial D197M, P11182	-0.382 ± 0.082
Lipoamide acyltransferase component of branched-chain alpha-keto acid dehydrogenase complex, mitochondrial G198A, P11182	-0.517 ± 0.044
Lipoamide acyltransferase component of branched-chain alpha-keto acid dehydrogenase complex, mitochondrial R179W, P11182	-0.28 ± 0.049
Lipoamide acyltransferase component of branched-chain alpha-keto acid dehydrogenase complex, mitochondrial N207F, P11182	-0.339 ± 0.091
Lipoamide acyltransferase component of branched-chain alpha-keto acid dehydrogenase complex, mitochondrial T171M, P11182	0.031 ± 0.062
Lipoamide acyltransferase component of branched-chain alpha-keto acid dehydrogenase complex, mitochondrial G214H, P11182	0.016 ± 0.17
Lipoamide acyltransferase component of branched-chain alpha-keto acid dehydrogenase complex, mitochondrial S194A, P11182	-0.564 ± 0.073
Lipoamide acyltransferase component of branched-chain alpha-keto acid dehydrogenase complex, mitochondrial E190N, P11182	-0.032 ± 0.047
Lipoamide acyltransferase component of branched-chain alpha-keto acid dehydrogenase complex, mitochondrial K211P, P11182	-0.093 ± 0.048
